Literature values, collected in publication PMC3625564.

Target: Endocan (Homo sapiens) (UniProt Q9NQ30)
Experiment: biosensor

Chain of UniProt Q9NQ30 (Q9NQ30 20-184): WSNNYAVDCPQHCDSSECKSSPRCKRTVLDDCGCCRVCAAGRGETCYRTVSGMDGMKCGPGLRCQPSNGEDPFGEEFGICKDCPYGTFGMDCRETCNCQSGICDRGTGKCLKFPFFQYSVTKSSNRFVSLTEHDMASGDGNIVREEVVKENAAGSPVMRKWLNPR

- Kd: 4.5 nM
Substance: HGF (from UniProt P14210)
